One protein from patent publication US20120088276 can be followed below.

The target in series [1] is T1, E. coli (strain K12) RecA protein, wild type.
T1 chain: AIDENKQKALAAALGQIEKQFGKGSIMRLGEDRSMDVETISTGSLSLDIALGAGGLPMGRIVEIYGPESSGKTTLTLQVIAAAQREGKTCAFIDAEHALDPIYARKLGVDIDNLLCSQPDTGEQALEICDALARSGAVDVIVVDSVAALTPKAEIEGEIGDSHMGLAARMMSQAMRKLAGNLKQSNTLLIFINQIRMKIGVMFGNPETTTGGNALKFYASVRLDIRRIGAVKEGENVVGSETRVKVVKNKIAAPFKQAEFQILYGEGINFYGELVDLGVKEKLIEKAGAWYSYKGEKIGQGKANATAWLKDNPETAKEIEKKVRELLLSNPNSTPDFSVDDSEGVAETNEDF

B1: bacteriophage P1 Ref protein (wild type) (protein)
chain: MKTIEQKIEQCRKWQKAARERAIARQREKLADPVWRESQYQKMRDTLDRRIAKQKERPPASKTRKSAVKIKSRGLKGRTPTAEERRIANALGALPCIACYMHGVISNEVSLHHIAGRTAPGCHKKQLPLCRWHHQHAAPAEVREKYPWLVPVHADGVVGGKKEFTLLNKSEMELLADAYEMANIMH
For B1, the “nuclease activity (degradation of M13mp18 circular ssDNA, agarose gel)” value in series [1] was “the nuclease activity depended on both Ref and active RecA filaments”. Also, the “targeted cleavage of both strands of duplex DNA at RecA-created D-loops (restriction analysis, agarose gel)” value in the series with RecA E38K mutant protein was “the Ref-induced breaks in the circular double stranded DNA occur where the RecA-bound oligonucleotide invaded the duplex DNA to form a D-loop”.
